Results reported in IntAct's records for PubMed 28712572.

Target: gbrap_human GABARAP (UniProt O95166)
Sequence (O95166 whole entry): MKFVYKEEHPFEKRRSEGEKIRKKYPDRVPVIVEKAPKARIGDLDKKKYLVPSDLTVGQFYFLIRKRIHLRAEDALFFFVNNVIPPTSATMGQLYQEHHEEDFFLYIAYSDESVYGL

| effect of a mutation on the interaction | Substance |
| --- | --- |
| with no effect | Pericentriolar material 1 protein (Homo sapiens), Q15154 E1960R |
| with no effect | Pericentriolar material 1 protein (Homo sapiens), Q15154 E1960S |
| with no effect | Pericentriolar material 1 protein (Homo sapiens), Q15154 E1960T |
| decreasing interaction strength | Pericentriolar material 1 protein (Homo sapiens), Q15154 E1960V |
| with no effect | Pericentriolar material 1 protein (Homo sapiens), Q15154 E1960W |
| with no effect | Pericentriolar material 1 protein (Homo sapiens), Q15154 E1961F |
| with no effect | Pericentriolar material 1 protein (Homo sapiens), Q15154 E1961G |
| decreasing interaction strength | Pericentriolar material 1 protein (Homo sapiens), Q15154 E1961M |
| with no effect | Pericentriolar material 1 protein (Homo sapiens), Q15154 E1961N |
| decreasing interaction strength | Pericentriolar material 1 protein (Homo sapiens), Q15154 E1961P |
| with no effect | Pericentriolar material 1 protein (Homo sapiens), Q15154 E1961Q |
| with no effect | Pericentriolar material 1 protein (Homo sapiens), Q15154 E1961T |
| decreasing interaction strength | Pericentriolar material 1 protein (Homo sapiens), Q15154 E1961V |
| with no effect | Pericentriolar material 1 protein (Homo sapiens), Q15154 E1961W |
| with no effect | Pericentriolar material 1 protein (Homo sapiens), Q15154 E1961Y |
| with no effect | Pericentriolar material 1 protein (Homo sapiens), Q15154 E1967A |

More lines, now with the values behind:

| Substance | effect of a mutation on the interaction |
| --- | --- |
| Pericentriolar material 1 protein (Homo sapiens), Q15154 E1960Q | with no effect |
| Pericentriolar material 1 protein (Homo sapiens), Q15154 E1960Y | with no effect |
| Pericentriolar material 1 protein (Homo sapiens), Q15154 E1961A | with no effect |
| Pericentriolar material 1 protein (Homo sapiens), Q15154 E1961C | with no effect |
| Pericentriolar material 1 protein (Homo sapiens), Q15154 E1961D | with no effect |
| Pericentriolar material 1 protein (Homo sapiens), Q15154 E1961H | with no effect |
| Pericentriolar material 1 protein (Homo sapiens), Q15154 E1961I | with no effect |
| Pericentriolar material 1 protein (Homo sapiens), Q15154 E1961K | disrupting interaction strength |
| Pericentriolar material 1 protein (Homo sapiens), Q15154 E1961L | with no effect |
| Pericentriolar material 1 protein (Homo sapiens), Q15154 E1961R | decreasing interaction strength |
| Pericentriolar material 1 protein (Homo sapiens), Q15154 E1961S | with no effect |
